Laboratory results published in publication PMC8234197.

Tests used:
[1] = target: MsuD^ΔC–16 (MsuD with the last 16 residues of the C terminus deleted) (Pseudomonas fluorescens)
[2] = target: MsuD^ΔC–16 (MsuD with the last 16 residues of the C terminus deleted) (Pseudomonas fluorescens); experiment: SEC; analytical gel filtration, Enrich SEC 650 10 × 300 column, 4 °C, 50 mM sodium phosphate, 150 mM NaCl, pH 7.2, with high-molecular-weight standards
[3] = target: alkanesulfonate monooxygenase MsuD from Pseudomonas fluorescens (wildtype) (Pseudomonas fluorescens)
[4] = target: alkanesulfonate monooxygenase MsuD from Pseudomonas fluorescens (wildtype) (Pseudomonas fluorescens); experiment: crystal structure; cocrystal with FMN and MS− (P6_1, four chains per asymmetric unit); unliganded and FMN- or FMN/MS−-soaked crystals (P2_1, two tetramers per asymmetric unit)
[5] = target: alkanesulfonate monooxygenase MsuD from Pseudomonas fluorescens (wildtype) (Pseudomonas fluorescens); experiment: SEC; analytical gel filtration, Enrich SEC 650 10 × 300 column, 4 °C, 50 mM sodium phosphate, 150 mM NaCl, pH 7.2, with high-molecular-weight standards

Substance | sulfite formation from MS− in a coupled reaction with MsuE (DTNB assay) (µmol/min/µmol enzyme) [1] | stoichiometry N [2] | sulfite formation from MS− in a coupled reaction with MsuE (DTNB assay), wildtype under the conditions of the MsuD^ΔC–16 test (µmol/min/µmol enzyme) [3] | stoichiometry N [4] | stoichiometry N [5]
MsuD^ΔC–16 (MsuD with the last 16 residues of the C terminus deleted) (domain or fragment) | 0.45 | 2 |  |  | 
alkanesulfonate monooxygenase MsuD from Pseudomonas fluorescens (wildtype) (enzyme) |  |  | 5.7 | 4 | 4
